The source of these data is publication PMC5336394 (Structure (London, England : 1993), 2017).

Holding throughout (experiment): NMR titration
The target of assay [1] is CypA^V29L (UniProt P62937 1-165, V29L).
For assay [2], the target named is CypA^V29A (UniProt P62937 1-165, V29A).
Assay [3] deals with CypA^V6T (UniProt P62937 1-165, V6T).
Assay [4] has as its target CypA^V6S (UniProt P62937 1-165, V6S).
In assay [5] the target is cyclophilin A (UniProt P62937 1-165).
In assay [6] the target is CypA^V6I (UniProt P62937 1-165, V6I).
The target of assay [7] is CypA^V6L (UniProt P62937 1-165, V6L).
In assay [8] the target is CypA^V6A (UniProt P62937 1-165, V6A).
Assay [9] addresses CypA^V29T (UniProt P62937 1-165, V29T).
The target in assay [10] is CypA^V6TV29L (UniProt P62937 1-165, V6T | V29L).
Sequence of CypA^V6TV29L (P62937 whole entry V6T/V29L): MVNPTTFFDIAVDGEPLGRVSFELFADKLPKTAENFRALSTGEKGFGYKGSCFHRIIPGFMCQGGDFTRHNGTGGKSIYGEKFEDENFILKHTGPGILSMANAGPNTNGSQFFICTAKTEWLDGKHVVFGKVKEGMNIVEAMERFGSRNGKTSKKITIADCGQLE

Sequence of CypA^V29T (P62937 whole entry V29T): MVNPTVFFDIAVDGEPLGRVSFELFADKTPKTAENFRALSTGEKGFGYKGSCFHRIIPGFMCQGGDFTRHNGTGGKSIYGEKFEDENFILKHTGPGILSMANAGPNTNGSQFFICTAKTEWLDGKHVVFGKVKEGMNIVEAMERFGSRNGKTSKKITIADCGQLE
Sequence of CypA^V29L (P62937 whole entry V29L): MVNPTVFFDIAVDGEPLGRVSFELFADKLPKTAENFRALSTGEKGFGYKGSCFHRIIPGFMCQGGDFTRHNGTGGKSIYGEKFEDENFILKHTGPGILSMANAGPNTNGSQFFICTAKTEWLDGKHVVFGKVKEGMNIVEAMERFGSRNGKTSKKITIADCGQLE
Sequence of CypA^V6A (P62937 whole entry V6A): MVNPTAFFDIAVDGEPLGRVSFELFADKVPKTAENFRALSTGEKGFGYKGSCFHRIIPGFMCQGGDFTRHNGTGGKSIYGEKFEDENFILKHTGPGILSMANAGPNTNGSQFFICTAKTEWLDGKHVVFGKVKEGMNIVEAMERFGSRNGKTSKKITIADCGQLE
Sequence of CypA^V29A (P62937 whole entry V29A): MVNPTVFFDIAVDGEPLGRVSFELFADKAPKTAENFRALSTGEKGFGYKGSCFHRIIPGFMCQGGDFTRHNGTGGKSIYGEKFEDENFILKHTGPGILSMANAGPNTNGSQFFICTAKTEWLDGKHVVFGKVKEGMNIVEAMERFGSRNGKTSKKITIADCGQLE
Sequence of CypA^V6I (P62937 whole entry V6I): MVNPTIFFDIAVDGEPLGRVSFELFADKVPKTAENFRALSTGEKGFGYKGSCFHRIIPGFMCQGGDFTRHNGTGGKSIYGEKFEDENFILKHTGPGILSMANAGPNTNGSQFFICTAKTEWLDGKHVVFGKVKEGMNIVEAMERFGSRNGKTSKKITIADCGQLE
Sequence of CypA^V6S (P62937 whole entry V6S): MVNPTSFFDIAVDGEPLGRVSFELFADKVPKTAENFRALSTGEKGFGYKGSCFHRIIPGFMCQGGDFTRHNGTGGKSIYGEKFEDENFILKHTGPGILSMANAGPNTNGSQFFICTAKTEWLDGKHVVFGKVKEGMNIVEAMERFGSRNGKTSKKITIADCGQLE
Sequence of CypA^V6L (P62937 whole entry V6L): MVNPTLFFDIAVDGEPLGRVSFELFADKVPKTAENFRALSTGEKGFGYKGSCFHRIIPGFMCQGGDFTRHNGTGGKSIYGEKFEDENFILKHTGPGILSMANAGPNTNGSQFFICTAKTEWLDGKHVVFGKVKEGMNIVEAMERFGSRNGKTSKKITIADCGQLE
Sequence of cyclophilin A (P62937 whole entry): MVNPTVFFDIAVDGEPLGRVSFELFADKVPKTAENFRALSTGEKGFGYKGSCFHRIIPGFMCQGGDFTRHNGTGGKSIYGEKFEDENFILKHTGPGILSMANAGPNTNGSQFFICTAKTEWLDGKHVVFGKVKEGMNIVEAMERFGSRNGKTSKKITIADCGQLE
Sequence of CypA^V6T (P62937 whole entry V6T): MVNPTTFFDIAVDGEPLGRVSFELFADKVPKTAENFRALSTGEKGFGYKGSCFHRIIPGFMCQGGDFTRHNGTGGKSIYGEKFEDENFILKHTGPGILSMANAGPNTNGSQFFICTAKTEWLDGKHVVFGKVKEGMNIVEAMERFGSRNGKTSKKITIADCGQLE

With GSFGPDLRAGD [FGP peptide], the Kd in assay [1] was 38 µM; in assay [2] it was 57 µM; in assay [3], 48 µM; in assay [4], 65 µM; in assay [5], 76 µM; in assay [6], 86 µM. The Kd in assay [7] was determined as 69 µM; in [8], 82 µM; in [9] it was 73 µM; in assay [10], 37 µM.
